We go through 3 molecules from patent publication US20170267750A1, “Method of Treating Ovarian and Renal Cancer Using Antibodies Against T Cell Immunoglobulin Domain and Mucin Domain 1 (TIM-1) Antigen” (Celldex Therapeutics, Inc., priority 2005, published 2017).

Experiment [1] deals with TIM-1 (T cell, immunoglobulin domain and mucin domain 1), cell membrane-bound (human) (UniProt Q96D42). As to the kind of experiment: cell-based or functional assay.
The target in experiment [2] is TIM-1 antigen, soluble extracellular domain of TIM-1 (CG57008-02) with a V5-HIS tag (human) (UniProt Q96D42). In words: BIAcore 2000, 25 C, mAb captured on goat anti-human surface, TIM-1 antigen injected at 292 nM.
Sequence of TIM-1 antigen, soluble extracellular domain of TIM-1 (CG57008-02) with a V5-HIS tag (human) (Q96D42 other isoform, or with tags, fused parts or gaps): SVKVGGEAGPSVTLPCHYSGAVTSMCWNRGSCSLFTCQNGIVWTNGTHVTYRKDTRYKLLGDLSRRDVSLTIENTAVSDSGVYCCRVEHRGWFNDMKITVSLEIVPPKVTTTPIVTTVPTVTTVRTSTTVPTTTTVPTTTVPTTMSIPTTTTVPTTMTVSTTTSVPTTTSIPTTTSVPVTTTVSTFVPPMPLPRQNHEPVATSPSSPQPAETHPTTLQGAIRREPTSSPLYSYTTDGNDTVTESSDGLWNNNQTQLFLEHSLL

Usually Kd stands for the equilibrium constant for the complex coming apart. Read a low Kd as higher affinity.

Sequence of TIM-1 (T cell, immunoglobulin domain and mucin domain 1), cell membrane-bound (human) (Q96D42 21-364): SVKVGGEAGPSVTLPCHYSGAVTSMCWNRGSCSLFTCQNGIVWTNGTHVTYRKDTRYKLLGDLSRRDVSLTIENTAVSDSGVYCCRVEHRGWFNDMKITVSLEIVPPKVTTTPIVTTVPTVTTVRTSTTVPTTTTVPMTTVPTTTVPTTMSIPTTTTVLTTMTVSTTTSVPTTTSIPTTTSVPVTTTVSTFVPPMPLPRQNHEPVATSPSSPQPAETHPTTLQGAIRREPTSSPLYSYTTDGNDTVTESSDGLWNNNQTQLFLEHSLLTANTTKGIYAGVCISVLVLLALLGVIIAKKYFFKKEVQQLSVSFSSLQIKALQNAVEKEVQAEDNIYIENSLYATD

B1: Auristatin E (AE)-conjugated anti-TIM-1 mAb 2.70.2 (antibody, human IgG4, kappa, V domains shown)
VH: QVQLVESGGGVVQPGRSLRLSCAASGFIFSRYGMHWVRQAPGKGLKWVAVIWYDGSNKLYADSVKGRFTISRDNSKNTLYLQMNSLRAEDTAVYYCARDYYDNSRHHWGFDYWGQGTLVTVSS
VL: DIVMTQTPLSLPVTPGEPASISCRSSRSLLDSDDGNTYLDWYLQKPGQSPQLLIYTLSYRASGVPDRFSGSGSGTDFTLKISRVEAEDVGVYYCMQRVEFPITFGQGTRLEIKR
B1 returned a CAKI-1 cell death, clonogenic assay with AE-conjugated antibody, maximum dose in experiment [1] of over 90%.

B2: Auristatin E (AE)-conjugated anti-TIM-1 mAb 2.59.2 (antibody, V domains shown)
VH: NNNNNQSGPRLVKPSQTLSLTCTVSGGSISSDGYYWSWIRQHPGKGLEWIGYIYYSGSTFYNPSLKSRVAISVDTSKNQFSLKLSSVTAADTAVYYCARESPHSSNWYSGFDCWGQGTLVTVSS
VL: NNNNTQSPDFQSVTPKEKVTITCRASQSIGSRLHWYQQKPDQSPKLLIKYASQSFSGVPSRFSGSGSGTDFTLTINSLEAEDAATYYCHQSSNLPFTFGPGTKVDIKR
With B2, the CAKI-1 cell death, clonogenic assay with AE-conjugated antibody, maximum dose in experiment [1] was over 90%.

B3: anti-TIM-1 monoclonal antibody 2.54 (antibody, V domains shown)
VH: QVQLEQSGGGVVQPGRSLRLSCAASGFTFTNYGLHWVRQAPGKGLDWVAVIWYDGSHKFYADSVKGRFTISRDNSKNTLFLQMNSLRAEDTAVYYCTRDLDYWGQGTLVTVSS
VL: ETQLTQSPGTLSLSPGERVTLSCRASQSVSNNYLAWYQQKPGQAPRLLIYGASSRATGIPDRFSGSGSGTDFTLTISRLEPEDCAECYCQQYGSSLPLTFGGGTKVEIKR
For B3, in experiment [2], the Kd was determined as 3.35 nM.
